The values below come from the RNAGym collection of RNA variant scans (doi:10.1073/pnas.2313332121).

B1: TPR t1 (parent)
chain: GACCAAUCUGCCCUCAGAGCUCGAGAACAUCUUCGGAUGCAGAGGAGGCAGGCUUCGGUGGCGCGAUAGCGCCAACGUCCUCAACCUCCAAUGCAUCCCACCACAUGAUGAUGCCUGAAGAGCCUUGGUUUUUUG

The variants in the data set derive from B1. Description: polymerase ribozyme fitness, log enrichment relative to wild type (log ratio); higher = more active; in vitro selection for triplet polymerase activity. A digest of the protocol: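 Genotype fitness is the logarithm of its enrichment divided by wild-type enrichment, using inverse-variance-weighted averages of replicates. That logarithm is base 2. Enrichment was measured by Illumina sequencing of input and output libraries from one triplicate in vitro selection round, with frozen incubation at −7 °C, on PCR-built, transcribed mutant libraries of each subunit of a heterodimeric triplet polymerase ribozyme, retaining genotypes with ≥10 input reads and ≥1 read per output.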
C12A U130A: the “polymerase ribozyme fitness (log ratio)” value is -2.22. Consider C12A G57U A91G U96A, for which the “polymerase ribozyme fitness (log ratio)” value is -3.09.

Turning to C11U A26U G52C, the “polymerase ribozyme fitness (log ratio)” value is -3.53. In the case of C12A U133G it was -1.24. For C11G U21A G77A, the “polymerase ribozyme fitness (log ratio)” value is -0.311. C12G A103U: the “polymerase ribozyme fitness (log ratio)” value was -4.83. As for C12A G69C C85A G113U G127A U130C, the “polymerase ribozyme fitness (log ratio)” value was -7.98. Turning to C12A G63C C102G C104U G113A, the “polymerase ribozyme fitness (log ratio)” value is -7.42. Consider C12A C64G C98G A103U A119G, for which the “polymerase ribozyme fitness (log ratio)” value is -6.93. As to C11U G52A U92G C102A G122U, the “polymerase ribozyme fitness (log ratio)” value is -6.57. With C12A U32C U96A G122C C123G U131A, the “polymerase ribozyme fitness (log ratio)” value is -0.725. For the variant C11U G19C G71A U116C A119U G122A, the “polymerase ribozyme fitness (log ratio)” value is -6.27. The value for C11U G42A U96A was -3.35. Turning to C11U G58C G120U, the “polymerase ribozyme fitness (log ratio)” value was found to be 0.332.

Consider C12G A41U A83U G113C, for which the “polymerase ribozyme fitness (log ratio)” value was -3.27. For C11G G19A G47C G48A, the “polymerase ribozyme fitness (log ratio)” value was -3.86.

Regarding C11G G71A C89U G110U, the “polymerase ribozyme fitness (log ratio)” value is -3.53.

For C11U G57U, the “polymerase ribozyme fitness (log ratio)” value is -0.202. C11U C12A U96C: the “polymerase ribozyme fitness (log ratio)” value is -2.18. In the case of C11G G42A U59A A91C C94A A95G A118G, the “polymerase ribozyme fitness (log ratio)” value was -4.19. C12G A18U G51U A74G C86A C124A: the “polymerase ribozyme fitness (log ratio)” value is -6.6. On to C11G G19A C56U C73U, for which the “polymerase ribozyme fitness (log ratio)” value is -2.04.

C11G U109G: the “polymerase ribozyme fitness (log ratio)” value is -4.69. Consider C12A A46U G47C A68G U78C C124G, for which the “polymerase ribozyme fitness (log ratio)” value was -4.93. The value for C12A C40A C72A U130A was -2.02; that for C11G G117A was -0.219; that for C11G G47U C56U U112C G122A was -0.322. C12A A29U C56U: the “polymerase ribozyme fitness (log ratio)” value was -3.33.

As to C11U G39C, the “polymerase ribozyme fitness (log ratio)” value is -1.05. The value for C11U G42A was -2.48; that for C12A G120A U126G was 0.354; that for C12G A18C C80U U112G was -3.95. The value for C11U C62G U112A C123A G127U was -0.368.

With C11U A74U U109G U116A, the “polymerase ribozyme fitness (log ratio)” value was -6.7. The value for C11G G51C was -4.46.

Regarding C11U A27U G120A U132A, the “polymerase ribozyme fitness (log ratio)” value is -1.47. Turning to C11G G47U, the “polymerase ribozyme fitness (log ratio)” value is -0.345. As for C11G G47A, the “polymerase ribozyme fitness (log ratio)” value was -0.824.

On to C12A C62U A83G A100C, for which the “polymerase ribozyme fitness (log ratio)” value was -3.89.

With C11G G39A C124A, the “polymerase ribozyme fitness (log ratio)” value was 1.48.

On to C12A U33G G48A A119G, for which the “polymerase ribozyme fitness (log ratio)” value is -5.25. C12G C15U: the “polymerase ribozyme fitness (log ratio)” value was -0.505.

Regarding C11U G127U, the “polymerase ribozyme fitness (log ratio)” value is -2. As to C12A C72U A100C U133G, the “polymerase ribozyme fitness (log ratio)” value is -1.76.

With C11G G71A U106G, the “polymerase ribozyme fitness (log ratio)” value was -2.48.

Consider C11U C20G G117U, for which the “polymerase ribozyme fitness (log ratio)” value is -4.42. As to C11G G52A C99U U106G, the “polymerase ribozyme fitness (log ratio)” value was -4.99. For C11U C85G U109G C123A, the “polymerase ribozyme fitness (log ratio)” value was -5.74. In the case of C11G U55C C62G A83U A95U it was -1.47; in that of C11G G39C A74U C115U, -2.3. C11G C115U: the “polymerase ribozyme fitness (log ratio)” value is -1.01. Turning to C11U G19A C49U C56U U59C C114U, the “polymerase ribozyme fitness (log ratio)” value was -2.93. For the variant C11G U134A, the “polymerase ribozyme fitness (log ratio)” value was found to be 0.54. In the case of C11U C124A it was 1.7; in that of C11U U38A G120C, 0.779. Regarding C11G G17U A50U G71U C85A U87C, the “polymerase ribozyme fitness (log ratio)” value was -5.37. Take C12G C20U C123U U125C: the “polymerase ribozyme fitness (log ratio)” value was -0.31. C11U A26U C49G: the “polymerase ribozyme fitness (log ratio)” value is -3.4. As for C11U C13U A50C A103C U125A, the “polymerase ribozyme fitness (log ratio)” value is -5.37. Turning to C12A C73U C76A G120C, the “polymerase ribozyme fitness (log ratio)” value is -0.37. In the case of C12A C85G U116C it was -3.68; in that of C12A G69C A90U U106A, -4.63; in that of C11U A50U C88U, -1.26. For C11U U32A A68C G69U C98A C99A U106A C115G G117C U132A, the “polymerase ribozyme fitness (log ratio)” value was -6.55.

On to C11U A105C A118G, for which the “polymerase ribozyme fitness (log ratio)” value was -2.52. Consider C12A U81A, for which the “polymerase ribozyme fitness (log ratio)” value was -1.96. C11G G23U G39C G45C G47C C89U C99G C115U: the “polymerase ribozyme fitness (log ratio)” value was -7.14. In the case of C12A C72U A100U it was -2.13; in that of C12A C22U C56U A83C U125A, -4.56. Consider C11U C13A C88U, for which the “polymerase ribozyme fitness (log ratio)” value is -2.38. In the case of C11U C15G G51U A119G U133A it was -2.44; in that of C11U G52A G57U A95U, -1.32. On to C11U C20G U96G C123U, for which the “polymerase ribozyme fitness (log ratio)” value was -2.94. On to C11U C15A C56U, for which the “polymerase ribozyme fitness (log ratio)” value was -1.47. For C12A U96A A121G, the “polymerase ribozyme fitness (log ratio)” value is -0.355.

Turning to C12A A18U C76G G77U U96A, the “polymerase ribozyme fitness (log ratio)” value is -4.3.

Take C12A C76U U106A: the “polymerase ribozyme fitness (log ratio)” value was -1.29. Turning to C11U G48A G61A C86G, the “polymerase ribozyme fitness (log ratio)” value is -1.75. The value for C11U C28U C82U G120U was -2.14. In the case of C11U G60C A84U, the “polymerase ribozyme fitness (log ratio)” value was -0.912. For C12A U78A, the “polymerase ribozyme fitness (log ratio)” value is -1.37.

For C12A G17U A43U, the “polymerase ribozyme fitness (log ratio)” value is -4.46. For the variant C11U A74C A111U, the “polymerase ribozyme fitness (log ratio)” value is -3.83. Turning to C11G G19C G23A G63A A83C C114U C115U C123G, the “polymerase ribozyme fitness (log ratio)” value is -7.99.
